Assay results: patent US20070010433A1, “Use of compounds capable of inhibiting the proteolytic processing of semaphorins for prevention, treatment, diagnosis and prognosis of an invasive disease” (SEMA APS, priority 2002, published 2007)

What was measured:
SVEC4-10 cells = test: Endothelial cell motility in blindwell chambers (SVEC4-10); assay type: cell-based, mouse; conditions: for cell-motility-stimulating activity of purified Sema3E isoform fractions: fractions from heparin-sepharose and size-exclusion chromatography of COS-7 medium
Protocol: 200.000 endothelial mouse lymph nodes SVEC4-10 cells were suspended either in serum free DME/F12 (1:1) medium containing 25 mM Hepes pH 7.4, 0.1% BSA and D-glucose, or conditioned medium collected from cells expressing different Sema3E constructs and were loaded in the top compartments of blindwell chambers. The cells were left to adhere to fibronectin-coated polycarbonate filters within 3 h after seeding, and allowed to migrate through the pores of the filters in the next 3-6 h. Conditioned media from Sema3E or mock transfected 168FARN cells and COS-7 cells transfected with a pcDNA3.1: LacZ were used to examine the effect of the presence of Sema3E in the medium on endothelial cell motility. Migration of SVEC4-10 cells was evaluated after 5 h exposure to the conditioned media with or without Sema3E.
The full-length Sema3E expressed in cells can give a raise to several naturally occurring isoforms of Sema3E, such as for example the truncated p61-Sema3E, a full-length p87-Sema3E, or a dimer p87:p87-Sema3E. The effect of different isoforms of Sema3E on cell motility was studied by using the isoforms purified from conditioned medium collected from tranfected COS-7 cells in the assay described above. The proteins were purified by heparin-sepharose affinity chromatography with following size-exclusion chromatography. All fractions collected from the size-exclusion column were tested for the presence of cell-motility-stimulating activity.

PC12E2 cells = test: Neurite outgrowth from PC12E2 cells; assay type: cell-based; conditions: for stimulatory effect on neurite outgrowth: chromatographic fractions of COS-7 conditioned medium, 48 h, compared to negative control (conditioned medium from COS-7 cells without Sema3E proteins)
Protocol: Conditioned medium from COS-7 cells stably transfected with full-length Sema3E was collected and fractionated using heparin-sepharose affinity chromatography and consequent size-exlusion fractionation. Fractions containing different isoforms of Sema3E were collected and tested for neuritogenic activity.
PC12E2 cells were plated on poly-L-lysine coated 48-well plates (Costar) (5,000 cells/well) and grown overnight in DME/F12 medium supplemented with 5% foetal calf serum (FCS) and 10% horse serum (HS) at 37 C°, 5% CO2. The chromatographic fractions were dialyzed against DME/F12 medium without serum, protein concentration was adjusted to 10 μg/ml, and diluted 1:1 in conditioned medium collected from non-transfected COS-7 cells grown for 72 h in serum free DME/F12 medium. PC12E2 cells were incubated with samples of different Sema3E fractions for 48 h, afterwards cells were fixed with 11% glutaraldehyde in PBS, washed in PBS and stained with 0.1% crystal violet in 20% methanol, and neurite outgrowth was quantified. […] A neurite outgrowth index was calculated in each experiment dividing the percentage of neurite outgrowth index in the test sample by the percentage of neurite outgrowth index in response to conditioned medium from COS7 cells without Sema3E proteins (negative control). Other controls were: nerve growth factor (NGF), tested at concentration 500 ng/ml (positive control), and non-fractionated conditioned medium from COS-7 cells expressing full-length Sema3E, tested at concentration 50 μg total protein/mi. Activity was defined as the index divided by 2.
The truncated p61 isoform of Sema3E was further expressed as recombinant protein ([…]) in Pichia pastoris as described above, purified using Ni2+ affinity chromatography and tested in a neurite outgrowth assay described above. […] NGF at (positive control, 125 ng/ml) stimulated neurite outgrowth up to 40%.

[1] = system: 168FARN mouse tumor cells colonising the lungs; test: Experimental lung metastasis assay with transfected 168FARN cells; assay type: in vivo, Balb/c mice
Protocol: Non-metastatic 168FARN mouse tumor cells were stably transfected with the pcDNA3.1(−)/zeo^R vector encoding a wild-type Sema3E, or mock transfected with the empty vector as described above. Two clones expressing secreted Sema3E, 168FARN: 2s and 168FARN: 14, and a mock transfected clone, 168FARN: 16 were tested for their ability to colonise the lungs in the experimental metastasis assay as described previously (Christensen et al, 1998, Cancer Res 58:1238-44). Briefly, 10^5 cells were injected in the tail vein of female Balb/c mice (age 8-9 weeks). 4 weeks later the lungs were examined for tumor growth.
168FARN cells were stably transfected with constructs encoding 1-560 amino acid fragment of the sequence Sema3E, which corresponds to 61 kDa fragment of Sema3E (p61-Sema3E), a full-length Sema3E mutated on KRRFRR site (Sema3E(−) (+)myc), and a wild-type full-length Sema3E as described above, and stable clones expressing the proteins were injected to mice to induce the experimental metastasis. 10^5 cells of each clone expressing different constructs were injected into the tail vein of female Balb/c mice. After 24 days the lungs were excised, weighted and scored for the presence of visible lung tumors. The p61-Sema3E clones (two groups: clone#1, n=8; clone#5, n=6) were highly aggressive compared to a control group (injected with the cells expressing a secreted alkaline phosphatase (AP)), showing an increase in overall lung weight at about 300%.

[2] = system: SVEC4-10 endothelial cells; test: 3D co-culture of SVEC4-10 and 168FARN aggregates in matrigel; assay type: cell-based, mouse; conditions: co-culture with transfected 168FARN aggregates 3-5 mm apart, 7 days
Protocol: 100,000 cells in 10 μl were aggregated by incubation in a hanging drop at 37° C. for 4 h. The aggregates were moved onto a layer of solidified ECM gel (matrigel) so, that SVEC4-10 aggregates were placed 3-5 mm apart from the aggregates of 168FARN:AP (clone#3, control clone expressing AP), or 168FARN:p61-Sema3E (clone#5, expressing the non-tagged p61-sema3E isoform), or 168FARN:AP-p61-Sema3E (done#5, expressing the AP-tagged p61 isoform). Another layer of matrigel was added on the top of the aggregates. After 7 days of incubation aggregates were examined for invasive growth.

## heparin [reference compound]
SVEC4-10 cells; heparin in the medium at 1-10 μg/ml
  response of SVEC4-10 cells to p61-Sema3E-MH in presence of soluble heparin: decreased the response of SVEC4-10 cells to the p61 -Sema3E-MH to the basal level

## NGF: nerve growth factor, positive control [reference compound]
PC12E2 cells; positive control, 125 ng/ml
  stimulation of neurite outgrowth: up to 40%

B1: p87:p87-Sema3E dimer: dimer of full-length p87-Sema3E purified from medium of transfected COS-7 cells (protein, UniProt O15041 1-775, looked up)
chain: MASAGHIITLLLWGYLLELWTGGHTADTTHPRLRLSHKELLNLNRTSIFHSPFGFLDLHTMLLDEYQERLFVGGRDLVYSLSLERISDGYKEIHWPSTALKMEECIMKGKDAGECANYVRVLHHYNRTHLLTCGTGAFDPVCAFIRVGYHLEDPLFHLESPRSERGRGRCPFDPSSSFISTLIGSELFAGLYSDYWSRDAAIFRSMGRLAHIRTEHDDERLLKEPKFVGSYMIPDNEDRDDNKVYFFFTEKALEAENNAHAIYTRVGRLCVNDVGGQRILVNKWSTFLKARLVCSVPGMNGIDTYFDELEDVFLLPTRDHKNPVIFGLFNTTSNIFRGHAICVYHMSSIRAAFNGPYAHKEGPEYHWSVYEGKVPYPRPGSCASKVNGGRYGTTKDYPDDAIRFARSHPLMYQAIKPAHKKPILVKTDGKYNLKQIAVDRVEAEDGQYDVLFIGTDNGIVLKVITIYNQEMESMEEVILEELQIFKDPVPIISMEISSKRQQLYIGSASAVAQVRFHHCDMYGSACADCCLARDPYCAWDGISCSRYYPTGTHAKRRFRRQDVRHGNAAQQCFGQQFVGDALDKTEEHLAYGIENNSTLLECTPRSLQAKVIWFVQKGRETRKEEVKTDDRVVKMDLGLLFLRLHKSDAGTYFCQTVEHSFVHTVRKITLEVVEEEKVEDMFNKDDEEDRHHRMPCPAQSSISQGAKPWYKEFLQLIGYSNFQRVEEYCEKVWCTDRKRKKLKMSPSKWKYANPQEKKLRSKPEHYRLPRHTLDS
modifications: full-length dimer
notes: dimer of full-length p87-Sema3E purified from medium of transfected COS-7 cells
SVEC4-10 cells
  cell-motility-stimulating activity of purified Sema3E isoform fractions: failes to stimulate motility
PC12E2 cells
  stimulatory effect on neurite outgrowth: 28-35%

B2: p61-Sema3E: 1-560 amino acid fragment of Sema3E, 61 kDa truncated isoform from furin cleavage (SEQ ID NO: 3) (protein, listed as Mus sp.)
chain: MAPAGHILTLLLWGHLLELWTPGHSANPSYPRLRLSHKELLELNRTSIFQSPLGFLDLHTMLLDEYQERLFVGGRDLVYSLNLERVSDGYREIYWPSTAVKVEECIMKGKDANECANYIRVLHHYNRTHLLTCATGAFDPHCAFIRVGHHSEEPLFHLESHRSERGRGRCPFDPNSSFVSTLVGNELFAGLYSDYWGRDSAIFRSMGKLGHIRTEHDDERLLKEPKFVGSYMIPDNEDRDDNKMYFFFTEKALEAENNAHTIYTRVGRLCVNDMGGQRILVNKWSTFLKARLVCSVPGMNGIDTYFDELEDVFLLPTRDPKNPVIFGLFNTTSNIFRGHAVCVYHMSSIREAFNGPYAHKEGPEYHWSLYEGKVPYPRPGSCASKVNGGKYGTTKDYPDDAIRFARIDPLMYQPIKPVHKKPILVKTDGKYNLRQLAVDRVEAEDGQYDVLFIGTDTGIVLKVITIYNQETEWMEEVILEELQIFKDPAPIISMEISSKRQQLYIGSASAVAQVRFHHCDMYGSACADCCLARDPYCAWDGISCSRYYPTGAHAKRRFRR
SVEC4-10 cells
  cell-motility-stimulating activity of purified Sema3E isoform fractions: attractive for SVEC4-10 cells
[1]; 168FARN clones #1 and #5, 10^5 cells tail vein, 24 days, versus control cells expressing secreted alkaline phosphatase (AP)
  increase in overall lung weight: about 300%
[1]; 168FARN clones, 24 days, compared to Sema3E(−)(+)myc clones #14 and #6
  lung weight versus groups with mutated Sema3E(−)(+)myc: double increase
[2]
  invasive growth of SVEC4-10 endothelial cells: invasion of SVEC4-10 endothelial cells was observed
PC12E2 cells
  stimulatory effect on neurite outgrowth: 24-39%

B3: Sema3E: wild-type full-length mouse Sema3E (SEQ ID NO: 1) expressed in 168FARN cells (protein, listed as Mus sp.)
chain: MAPAGHILTLLLWGHLLELWTPGHSANPSYPRLRLSHKELLELNRTSIFQSPLGFLDLHTMLLDEYQERLFVGGRDLVYSLNLERVSDGYREIYWPSTAVKVEECIMKGKDANECANYIRVLHHYNRTHLLTCATGAFDPHCAFIRVGHHSEEPLFHLESHRSERGRGRCPFDPNSSFVSTLVGNELFAGLYSDYWGRDSAIFRSMGKLGHIRTEHDDERLLKEPKFVGSYMIPDNEDRDDNKMYFFFTEKALEAENNAHTIYTRVGRLCVNDMGGQRILVNKWSTFLKARLVCSVPGMNGIDTYFDELEDVFLLPTRDPKNPVIFGLFNTTSNIFRGHAVCVYHMSSIREAFNGPYAHKEGPEYHWSLYEGKVPYPRPGSCASKVNGGKYGTTKDYPDDAIRFARIDPLMYQPIKPVHKKPILVKTDGKYNLRQLAVDRVEAEDGQYDVLFIGTDTGIVLKVITIYNQETEWMEEVILEELQIFKDPAPIISMEISSKRQQLYIGSASAVAQVRFHHCDMYGSACADCCLARDPYCAWDGISCSRYYPTGAHAKRRFRRQDVRHGNAAQQCFGQQFVGDALDRTEERLAYGIESNSTLLECTPRSLQAKVIWFYQKGRDVRKEEVKTDDRVVKMDLGLLFLRVRKSDAGTYFCQTVEHNFVHTVRKITLEVVEEHKVEGMFHKDHEEERHHKMPCPPLSGMSQGTKPWYKEFLQLIGYSNFQRVEEYCEKVWCTDKKRKKLKMSPSKWKYANPQEKRLRSKAEHFRLPRHTLLS
[1]; 10^5 168FARN cells expressing wild-type Sema3E, tail vein, 4 weeks
  increase of overall weight of the lungs: 300%
[1]; 168FARN clones 2s and 14 expressing secreted Sema3E, 4 weeks, versus parental or mock transfected cells
  lung colonisation / visible lung tumors: colonized the lungs and produced large tumors
